Data as given in the supplement of paper PMC9428881.
± gives the standard error.

Assay: background-corrected fluorescence of 3'-dye-labeled ssDNA relative to brightest sequence (3'-GCGCG) (fraction); higher = brighter dye fluorescence (less quenching)
Procedure, shortened: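 Fluorescence values are background-corrected using unlabeled oligos and expressed relative to the brightest sequence. The single-stranded DNA was made on glass slides by light-directed phosphoramidite synthesis, each of 1024 permuted pentamers ending beside a 3' Cy3 or Cy5 dye. Scans at 532 or 635 nm were taken before and after overnight ethylenediamine/ethanol deprotection, and each value averages 10 features per array and at least 3 syntheses.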

Sequence | background-corrected fluorescence (dye: Cy3 (3' terminal)) | background-corrected fluorescence (dye: Cy5 (3' terminal))
TTTTTTCATGCTGATGCTGATTTTTTTTTTTTTTTGACAC [CACAG] | 0.42 ± 0.0058 | 0.321 ± 0.044
TTTTTTGATCATCATCAGCATTTTTTTTTTTTTTTCGGGT [TGGGC] | 0.7 ± 0.013 | 0.616 ± 0.068
TTTTTTGCTGCTCATCAGCATTTTTTTTTTTTTTTAAGGT [TGGAA] | 0.658 ± 0.016 | 0.585 ± 0.052
TTTTTTGCGCATGCGCAGCATTTTTTTTTTTTTTTATATT | 0.543 ± 0.019 | 0.392 ± 0.024
TTTTTTGATCAGCATCATCATTTTTTTTTTTTTTTCGTGG [GGTGC] | 0.622 ± 0.021 | 0.483 ± 0.033
TTTTTGCATGCTGATCATGATTTTTTTTTTTTTTTTACGC [CGCAT] | 0.523 ± 0.0065 | 0.439 ± 0.032
TTTTTTCAGCATCATCATGATTTTTTTTTTTTTTTGTGGC [CGGTG] | 0.572 ± 0.011 | 0.439 ± 0.041
TTTTTTCATGAGCATGAGCATTTTTTTTTTTTTTTGCTCT [TCTCG] | 0.497 ± 0.015 | 0.337 ± 0.023
TTTTTTGCTCATGCTGCTCATTTTTTTTTTTTTTTAGAAG [GAAGA] | 0.5917 ± 0.0049 | 0.456 ± 0.025
TTTTTGCATGATGCGCATGATTTTTTTTTTTTTTTTCATC [CTACT] | 0.406 ± 0.0046 | 0.305 ± 0.028
TTTTTTGCGCAGCATCATCATTTTTTTTTTTTTTTATTGG [GGTTA] | 0.549 ± 0.038 | 0.476 ± 0.055
TTTTTTGATCATCATGCGCATTTTTTTTTTTTTTTCGGAT [TAGGC] | 0.593 ± 0.017 | 0.472 ± 0.033
TTTTTGCAGCATGATGATGCTTTTTTTTTTTTTTTTTCCA [ACCTT] | 0.453 ± 0.026 | 0.35 ± 0.028
TTTTTTGCTCAGCATCATGATTTTTTTTTTTTTTTAGTGC [CGTGA] | 0.518 ± 0.047 | 0.405 ± 0.024
TTTTTGCATGCGCATGCGCATTTTTTTTTTTTTTTTATAT | 0.5701 ± 0.0051 | 0.405 ± 0.037
TTTTTGCATGCTCATGATGATTTTTTTTTTTTTTTTAGCC [CCGAT] | 0.425 ± 0.017 | 0.311 ± 0.015
TTTTTTGAGCATGATGCTGCTTTTTTTTTTTTTTTCTCAA [AACTC] | 0.52 ± 0.042 | 0.395 ± 0.02
TTTTTTCATCATGCTGCGCATTTTTTTTTTTTTTTGGAAT [TAAGG] | 0.594 ± 0.033 | 0.453 ± 0.043
TTTTTTGCTCATGAGCAGCATTTTTTTTTTTTTTTAGCTT [TTCGA] | 0.551 ± 0.021 | 0.419 ± 0.041
TTTTTTCATCATGCTCATGATTTTTTTTTTTTTTTGGAGC [CGAGG] | 0.549 ± 0.026 | 0.439 ± 0.029
TTTTTTGATGAGCAGCATGCTTTTTTTTTTTTTTTCCTTA [ATTCC] | 0.513 ± 0.023 | 0.369 ± 0.029
TTTTTTGCTCATCAGCATGATTTTTTTTTTTTTTTAGGTC [CTGGA] | 0.459 ± 0.014 | 0.376 ± 0.019
TTTTTTGCTGCTCATGCTGCTTTTTTTTTTTTTTTAAGAA | 0.619 ± 0.015 | 0.481 ± 0.022

Sequence | background-corrected fluorescence (dye: Cy3 (3' terminal)) | background-corrected fluorescence (dye: Cy5 (3' terminal))
TTTTTGCATGATCAGCATCATTTTTTTTTTTTTTTTCGTG [GTGCT] | 0.525 ± 0.015 | 0.441 ± 0.029
TTTTTGCATGCTGCTGATGATTTTTTTTTTTTTTTTAACC [CCAAT] | 0.396 ± 0.025 | 0.278 ± 0.021
TTTTTTGATGCTCATCATCATTTTTTTTTTTTTTTCAGGG [GGGAC] | 0.723 ± 0.023 | 0.574 ± 0.026
TTTTTTGATGATGCTGCGCATTTTTTTTTTTTTTTCCAAT [TAACC] | 0.527 ± 0.017 | 0.394 ± 0.022
TTTTTTCAGCATGCGCAGCATTTTTTTTTTTTTTTGTATT [TTATG] | 0.5 ± 0.07 | 0.375 ± 0.03
TTTTTGCATGAGCATGATCATTTTTTTTTTTTTTTTCTCG [GCTCT] | 0.506 ± 0.02 | 0.376 ± 0.039
TTTTTTGCGCATCATGATCATTTTTTTTTTTTTTTATGCG [GCGTA] | 0.587 ± 0.017 | 0.49 ± 0.035
TTTTTGCATCATCATGATGCTTTTTTTTTTTTTTTTGGCA [ACGGT] | 0.562 ± 0.015 | 0.472 ± 0.032
TTTTTTGCTGATGCGCATGATTTTTTTTTTTTTTTACATC [CTACA] | 0.392 ± 0.027 | 0.322 ± 0.018
TTTTTTGCTGATGATGCTCATTTTTTTTTTTTTTTACCAG [GACCA] | 0.516 ± 0.024 | 0.378 ± 0.028
TTTTTTCATCATGCTGATGATTTTTTTTTTTTTTTGGACC [CCAGG] | 0.446 ± 0.022 | 0.317 ± 0.023
TTTTTTGATGCTGATGATCATTTTTTTTTTTTTTTCACCG [GCCAC] | 0.505 ± 0.024 | 0.423 ± 0.058
TTTTTGCATCATGCTGAGCATTTTTTTTTTTTTTTTGACT [TCAGT] | 0.473 ± 0.034 | 0.357 ± 0.022
TTTTTTCATGCGCATGATCATTTTTTTTTTTTTTTGATCG [GCTAG] | 0.545 ± 0.016 | 0.41 ± 0.025
TTTTTGCATCATGCTGCTCATTTTTTTTTTTTTTTTGAAG [GAAGT] | 0.564 ± 0.02 | 0.44 ± 0.024
TTTTTTGAGCATCATGATGCTTTTTTTTTTTTTTTCTGCA [ACGTC] | 0.557 ± 0.03 | 0.452 ± 0.046
TTTTTTCATCATGCTGAGCATTTTTTTTTTTTTTTGGACT [TCAGG] | 0.508 ± 0.033 | 0.412 ± 0.04
TTTTTTGCGCATGCGCATGCTTTTTTTTTTTTTTTATATA | 0.537 ± 0.034 | 0.431 ± 0.042
TTTTTTCAGCATGCTGATCATTTTTTTTTTTTTTTGTACG | 0.561 ± 0.02 | 0.475 ± 0.031
TTTTTTGCTCAGCATGCTGCTTTTTTTTTTTTTTTAGTAA [AATGA] | 0.563 ± 0.016 | 0.493 ± 0.037
TTTTTTGATGATCATCATGATTTTTTTTTTTTTTTCCGGC [CGGCC] | 0.623 ± 0.025 | 0.511 ± 0.041
TTTTTTGCTGATGCTGCTGATTTTTTTTTTTTTTTACAAC [CAACA] | 0.448 ± 0.0078 | 0.302 ± 0.032
TTTTTTGCTCAGCATGATGCTTTTTTTTTTTTTTTAGTCA [ACTGA] | 0.529 ± 0.013 | 0.407 ± 0.029

Sequence | background-corrected fluorescence (dye: Cy3 (3' terminal)) | background-corrected fluorescence (dye: Cy5 (3' terminal))
TTTTTGCATCATGAGCATGATTTTTTTTTTTTTTTTGCTC [CTCGT] | 0.374 ± 0.037 | 0.296 ± 0.036
TTTTTTGCTGCGCAGCATGCTTTTTTTTTTTTTTTAATTA [ATTAA] | 0.564 ± 0.022 | 0.43 ± 0.027
TTTTTTGCTGATGCGCATGCTTTTTTTTTTTTTTTACATA [ATACA] | 0.591 ± 0.025 | 0.403 ± 0.038
TTTTTTGAGCATCAGCAGCATTTTTTTTTTTTTTTCTGTT [TTGTC] | 0.541 ± 0.023 | 0.411 ± 0.033
TTTTTGCAGCAGCATGATCATTTTTTTTTTTTTTTTTTCG [GCTTT] | 0.468 ± 0.011 | 0.327 ± 0.027
TTTTTGCAGCAGCATGCTGATTTTTTTTTTTTTTTTTTAC [CATTT] | 0.391 ± 0.039 | 0.292 ± 0.021
TTTTTGCAGCATGATGAGCATTTTTTTTTTTTTTTTTCCT [TCCTT] | 0.444 ± 0.021 | 0.325 ± 0.036
TTTTTTCATGCTGATCAGCATTTTTTTTTTTTTTTGACGT [TGCAG] | 0.601 ± 0.016 | 0.474 ± 0.028
TTTTTTGAGCATGATCATCATTTTTTTTTTTTTTTCTCGG [GGCTC] | 0.641 ± 0.034 | 0.508 ± 0.037
TTTTTGCATGATGAGCAGCATTTTTTTTTTTTTTTTCCTT | 0.435 ± 0.027 | 0.351 ± 0.029
TTTTTGCATGCTGATGCTGATTTTTTTTTTTTTTTTACAC [CACAT] | 0.425 ± 0.017 | 0.312 ± 0.014
TTTTTTGAGCATGCTGCTCATTTTTTTTTTTTTTTCTAAG [GAATC] | 0.542 ± 0.044 | 0.427 ± 0.031
TTTTTTGATGATGATGCTCATTTTTTTTTTTTTTTCCCAG [GACCC] | 0.504 ± 0.0073 | 0.374 ± 0.025
TTTTTGCATCAGCATGCTGATTTTTTTTTTTTTTTTGTAC [CATGT] | 0.471 ± 0.041 | 0.344 ± 0.022
TTTTTTGATGATCATGATCATTTTTTTTTTTTTTTCCGCG [GCGCC] | 0.961 ± 0.026 | 0.944 ± 0.034
TTTTTTGCTCATGCTGATCATTTTTTTTTTTTTTTAGACG [GCAGA] | 0.563 ± 0.031 | 0.443 ± 0.033
TTTTTTGCTCATCAGCAGCATTTTTTTTTTTTTTTAGGTT [TTGGA] | 0.584 ± 0.022 | 0.464 ± 0.08
TTTTTTGATCATCATCATGCTTTTTTTTTTTTTTTCGGGA [AGGGC] | 0.7 ± 0.0078 | 0.715 ± 0.052
TTTTTTCAGCATCAGCATCATTTTTTTTTTTTTTTGTGTG | 0.604 ± 0.017 | 0.43 ± 0.03
TTTTTGCATGCGCATGCTCATTTTTTTTTTTTTTTTATAG [GATAT] | 0.548 ± 0.02 | 0.418 ± 0.032
TTTTTGCATGCTGATCATCATTTTTTTTTTTTTTTTACGG [GGCAT] | 0.697 ± 0.037 | 0.514 ± 0.04
TTTTTTGATCATCAGCATCATTTTTTTTTTTTTTTCGGTG [GTGGC] | 0.574 ± 0.02 | 0.484 ± 0.031
